Measurements: article PMC3209416
Positions count from the first letter of the chain named. Names may count otherwise.

Substrate: CCCCC(O)CC(=O)C(=O)O
Test: purified protein
Format: biochemical, Thermotoga maritima
Conditions: retro-aldol cleavage, HEPES 100 mM pH 7.5, 34 °C

B1: T. maritima KDPG aldolase (wt-TMA; TM KDPG aldolase) (Thermotoga maritima MSB8; N150I) (protein)
chain: MKMEELFKKHKIVAVLRANSVEEAKEKALAVFEGGVHLIEITFTVPDADTVIKELSFLKEKGAIIGAGTVTSVEQCRKAVESGAEFIVSPHLDEEISQFCKEKGVFYMPGVMTPTELVKAMKLGHTILKLFPGEVVGPQFVKAMKGPFPIVKFVPTGGVNLDNVCEWFKAGVLAVGVGSALVKGTPDEVREKAKAFVEKIRGCTE
Mutant TM 8
  Km: 49 ± 19 mM
  kcat: 1.2 ± 0.3 s⁻¹
  kcat/Km: 25 ± 5 M⁻¹ s⁻¹

B2: T. maritima KDPG aldolase (wt-TMA; TM KDPG aldolase) (Thermotoga maritima MSB8; A30V) (protein)
chain: B1 chain with A30V, I150N
Mutant TM 5
  Km: 14 ± 5 mM
  kcat: 0.75 ± 0.1 s⁻¹
  kcat/Km: 54 ± 10 M⁻¹ s⁻¹

B3: T. maritima KDPG aldolase (wt-TMA; TM KDPG aldolase) (Thermotoga maritima MSB8; G83E/K9T) (protein)
chain: B1 chain with K9T, G83E, I150N
Mutant TM 2
  Km: 90 ± 20 mM
  kcat: 0.5 ± 0.1 s⁻¹
  kcat/Km: 5.5 ± 1 M⁻¹ s⁻¹

B4: T. maritima KDPG aldolase (wt-TMA; TM KDPG aldolase) (Thermotoga maritima MSB8; I52F/T185A/V135M) (protein)
chain: B1 chain with I52F, V135M, I150N, T185A
Mutant TM 6
  Km: 8 ± 3 mM
  kcat: 0.13 ± 0.02 s⁻¹
  kcat/Km: 17 ± 6 M⁻¹ s⁻¹

B5: T. maritima KDPG aldolase (wt-TMA; TM KDPG aldolase) (Thermotoga maritima MSB8; V136M) (protein)
chain: B1 chain with V136M, I150N
Mutant TM 4
  Km: 23 ± 4 mM
  kcat: 0.36 ± 0.02 s⁻¹
  kcat/Km: 16 ± 2 M⁻¹ s⁻¹

B6: T. maritima KDPG aldolase (wt-TMA; TM KDPG aldolase) (Thermotoga maritima MSB8; G34R/R190I/V172A) (protein)
chain: B1 chain with G34R, I150N, V172A, R190I
Mutant TM 1
  Km: 9 ± 2 mM
  kcat: 0.07 ± 0.01 s⁻¹
  kcat/Km: 9.3 ± 1.8 M⁻¹ s⁻¹
